{"source": "patent US7252997", "key": {"[1]": {"molecular_target": "AAV2 capsid mutant I-587 (P1 peptide inserted after amino acid 587, VP1 numbering) (adeno-associated virus serotype 2 (AAV2)) (UniProt P03135)", "assay": "capsid ELISA with A20 MAb on purified virus stock"}, "[2]": {"molecular_target": "Wild-type AAV2 capsid (adeno-associated virus serotype 2 (AAV2)) (UniProt P03135)", "assay": "capsid ELISA with A20 MAb on purified virus stock"}}, "data": [{"substance": "A20 monoclonal antibody", "values": [{"measurement": "titer with A20 capsid ELISA", "setting": "[1]", "value": "3e+12", "unit": "particles/ml"}, {"measurement": "titer with A20 capsid ELISA", "setting": "[2]", "value": "6e+12", "unit": "particles/ml"}]}]}
